# Biological target: T1, CdtA-CdtC heterodimer
# T1 chain 1: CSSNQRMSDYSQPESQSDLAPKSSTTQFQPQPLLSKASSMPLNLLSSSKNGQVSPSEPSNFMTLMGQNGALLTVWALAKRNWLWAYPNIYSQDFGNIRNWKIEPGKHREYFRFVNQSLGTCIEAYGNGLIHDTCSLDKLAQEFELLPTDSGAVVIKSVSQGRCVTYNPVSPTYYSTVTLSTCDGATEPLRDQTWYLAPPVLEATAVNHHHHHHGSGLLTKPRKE
# T1 chain 2: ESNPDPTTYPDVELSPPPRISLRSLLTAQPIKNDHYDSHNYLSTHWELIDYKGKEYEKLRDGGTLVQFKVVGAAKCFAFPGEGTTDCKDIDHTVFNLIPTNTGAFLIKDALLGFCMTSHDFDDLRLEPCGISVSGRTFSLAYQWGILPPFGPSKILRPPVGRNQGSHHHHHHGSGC
protein,measurement,value
CdtB/DNase I hybrid protein (protein) NLSDFKVATWNLQGSSAVNESKWNINVRQLLSGEQGADILMVQEAGSLPSSAVRTSRVIQHGGTPIEEYTWNLGTRSRPNMVYIYYSRLDVGANRVNLAIVSRRQADEAFIVHSDSSVLQSRPAVGIRIGTDVFFTVHAAPGDAVAEIDALYDVYLDVQEKWGLEDVMLMGDFNAGCSYVRPSQWSSIRLWTSPTFQWLIPDSADTTATPTHCAYDRIVVAGMLLRGAVVPDSALPFNFQAANGLSDQLAQAISDHYPVEVMLKHHHHHHHMLEDPAANKAQKK,DNA nicking activity of reconstituted heterotrimer preparations (subunit protection),reconstituted heterotrimer preparations containing the CdtB/DNase I hybrid protein failed to convert supercoiled DNA to linear and relaxed forms

# Source: patent US20150291667A1
